Results published in patent publication US20090092595A1, “Suppression of sPLA2-integrin binding for treating an inflammatory condition” (REGENTS OF THE UNIVERSITY OF CALIFORNIA, priority 2007, published 2009).
Where a chain is given by its changes, count along the chain named. Names and notes keep the numbering of the source. Each block holds one molecule with its values, some of them ahead of it.

How the values were obtained:
integrin α4β1 = target: T1, integrin α4β1 (Homo sapiens, UniProt P05556+P13612); assay: Adhesion of α4-K562 cells (recombinant α4β1) to immobilized sPLA2-IIA; type: cell-based; details: data not shown
T1 construct: K562 cells have endogenous α5β1; expressed in transfected cells; host or cells: K562
Description: FIG. 5. sPLA2-IIA binding to integrin α4β1. a) Cells expressing recombinant α4β1 adhered to wt sPLA2-IIA better than cells expressing other recombinant integrins. We used transfected K562 cells clonally express different human integrins for adhesion assays. Low background adhesion to BSA was subtracted. […] Wells of 96-well microtiter plate were coated with VCAM-1 and FN-GST, and incubated with U937 cells (1×10^4 cells/plate) in the presence of the increasing concentrations of sPLA2-IIA for 1 h at 37° C. Adherent cells were quantified using endogenous phosphatase after gently rinsing the well to remove unbound cells. Data is shown as means+/−SEM of triplicate experiments. *P=0.0101 and **P<0.0001 by t-test. c) Amino acid sequence in the α4 subunit that is critical for VCAM-1 and CS-1 binding is also critical for sPLA2-IIA binding. CHO cells that clonally express wt or mutant α4 (Irie, A. et al., Embo J, 14(22): 5550-5556 (1995)) were used for adhesion assays. Data is shown as means+/−SEM of triplicate experiments. Similar results were obtained using K562 cells expressing α4 mutants (not shown).
Other methods We performed docking simulation of interaction between sPLA2-IIA and integrin αvβ3 using the AutoDock3 as previously described (Mori, S. et al., J Biol Chem, in press (2008)). […]

[1] = Bowton et al. 2005; cited from earlier work
[2] = Bradley et al. 2005; cited from earlier work
[3] = target: integrin αvβ3 on CHO cells expressing recombinant αvβ3 (β3-CHO) and on proteoglycan-deficient pgs745 cells (β3-745) (human) (UniProt P05106); assay: cell adhesion to coated sPLA2-IIA, 7E3 at 10 µg/ml in the medium; about the background level
soluble integrin αvβ3 = target: T2, soluble integrin αvβ3 (Homo sapiens, UniProt P05106+P06756); assay: Binding of soluble αvβ3 to immobilized sPLA2-IIA (ELISA-type assay); details: immobilized protein, 20 μg/ml coating
T2 construct: Recombinant soluble αvβ3 was synthesized as previously described; made in house
Description: Binding of soluble αvβ3 to immobilized sPLA2-IIA sPLA2-IIA was immobilized to wells of 96 well microtiter plates and the remaining protein-binding sites were blocked by BSA as described (Mori, S. et al., J Biol Chem, 283:18066-18075 (2008)). Soluble recombinant αvβ3 at 5 μg/ml in Hepes-Tyrodes buffer supplemented with 1 mM MnCl2 was added to the well and incubated for 2 h. Bound αvβ3 was measured using anti-integrin β3 (mAb AV-10) followed by HRP-conjugated goat anti-mouse IgG and peroxidase substrates.

[4] = target: T3, integrin α4β1 on K562 cells expressing recombinant α4β1 (α4-K562) and on U937 human monocytic lymphoma cells (human, UniProt P13612 34-1032; P05556 21-798); assay: cell adhesion of α4-K562 cells to coated sPLA2-IIA
T3 construct: whole, on cells; Recombinant α4 in K562 cells; endogenous α4β1 in U937 cells; Treated as one molecule (human α4β1 on cells); also called α4-K562 cells; U937 cells (α4β1+)

[5] = target: T4, recombinant soluble integrin αvβ3 (UniProt P06756 31-992; P05106 27-718); assay: SPR (Biacore), soluble αvβ3 amine-coupled to CM5 chip, sPLA2-IIA injected, 1 mM Mn2+, 1:1 binding with drifting baseline model
T4 construct: Soluble heterodimer; whole entries named only; also called soluble αvβ3; soluble recombinant αvβ3
Description: (§4) The mutant proteins were tested for binding to soluble integrin αvβ3.
(§5) Surface plasmon resonance study Recombinant soluble integrin αvβ3 was immobilized to Biacore Sensor chip CM5 (Biacore, Piscataway, N.J.) by the standard amine coupling method. […] Then the sensor chip was washed with the running buffer alone at the same flow rate for another 5 min (the dissociation phase). Two consecutive one-minute injections of 0.5 M, pH 8 EDTA solution at the same flow rate were used to regenerate the chip for another cycle of injection. The resonance unit elicited from the reference flow cell was subtracted from the resonance unit elicited from the integrin flow cell to eliminate the non-specific protein-flow cell interaction and the bulk refractive index effect. The recorded binding curves were fitted with the “1:1 binding with drifting baseline model” by using the Biaevaluation Version 4.1.

α4-K562 cells = assay: Proliferation of α4-K562 cells (MTS assay); type: cell-based, human; details: serum-starved 48 h, stimulated 48 h
Description: (§1) Cells were serum-starved for 48 h and stimulated with sPLA2-IIA for 48 h. Cell proliferation was determined by MTS assays. Data is shown as means+/−SEM of triplicate experiments. α4- and αvβ3-K562 cells proliferated faster than mock-K562 cells. […] Serum-starved cells were stimulated with wt or mutant sPLA2-IIA (0.5 μg/ml) for 48 h. Data is shown as means+/−SEM of triplicate experiments. α4-K562 and αvβ3-K562 cells grew faster than mock K562 cells with wt and H47Q sPLA2-IIA (*P<0.05 by t-test).
(§2) Cell proliferation and MAP kinase activation K562 cells and human monocytic lymphoma U937 cells were maintained in RPM11640 medium supplemented with 10% FCS. Cells were plated in 96-well plates (1×10^4 cells/well), and serum-starved for 48 h at 37° C. in 5% CO2 atmosphere. Cells were then treated with or without sPLA2-IIA in medium without serum for 48 h. Cell proliferation was determined by MTS assays using the Aqueous Cell Proliferation Assay Kit (Promega). For MAP kinase activation assays, cells were serum starved in RPMI1640 medium supplemented with 0.4% FCS for 24 h, and stimulated with Wt and mutant sPLA2-IIA (0.5 μg/ml) for 10 min at 37° C. ERK1/2 activation was measured as described (Mori, S. et al., J Biol Chem, in press (2008)).

[6] = PLA2 activity by arachidonoyl-Thio-PC hydrolysis; type: biochemical; details: effect of mutation on catalytic activity
Description: Other methods We performed docking simulation of interaction between sPLA2-IIA and integrin αvβ3 using the AutoDock3 as previously described (Mori, S. et al., J Biol Chem, in press (2008)). Adhesion assays were performed as described previously (Eto, K. et al., J. Biol. Chem., 277:17804-17810 (2002)). mAb 7E3 was used at 10 μg/ml. We assayed PLA2 activity by arachidonoyl-Thio-PC hydrolysis (Cayman Chemicals, Ann Arbor, Mich.) as described (Reynolds, L. J. et al., Anal. Biochem., 217:25-32 (1994)).

αvβ3-K562 cells = assay: Proliferation of αvβ3-K562 cells (MTS assay); type: cell-based, human; details: serum-starved 48 h, stimulated 48 h
Description: as §1, §2

ERK1/2 = assay: MAP kinase (ERK1/2) activation in U937 cells, western blotting; type: cell-based, human; details: 0.5 μg/ml, 10 min, 37° C.
Description: (§3) U937 cells (αvβ3+, α4β1+) were plated in wells of 96-well plates (10,000 cells/well), and serum-starved for 48 h. After treatment with wt or mutant sPLA2-IIA for 48 h, we measured cell proliferation by MTS assays. […] U937 cells were serum-starved for 24 h, and stimulated with wt and mutant sPLA2-IIA (0.5 μg/ml) for 10 min at 37° C. Cell lysates were analyzed by western blotting with anti-phospho ERK1/2 or anti-ERK1/2 antibodies. The blot is representative of three independent experiments.
as §2

[7] = test system: U937 human monocytic lymphoma cells; assay: Proliferation of U937 cells (MTS assay); type: cell-based; details: serum-starved 48 h, treated 48 h
Description: as §3, §2

[8] = target: T4, recombinant soluble integrin αvβ3; assay: SPR (Biacore), soluble αvβ3 amine-coupled to CM5 chip, mutant injected, 1 mM Mn2+, 1:1 binding with drifting baseline model
Description: as §4, §5

T4 sequence (P06756 31-992, chain 1 of 2): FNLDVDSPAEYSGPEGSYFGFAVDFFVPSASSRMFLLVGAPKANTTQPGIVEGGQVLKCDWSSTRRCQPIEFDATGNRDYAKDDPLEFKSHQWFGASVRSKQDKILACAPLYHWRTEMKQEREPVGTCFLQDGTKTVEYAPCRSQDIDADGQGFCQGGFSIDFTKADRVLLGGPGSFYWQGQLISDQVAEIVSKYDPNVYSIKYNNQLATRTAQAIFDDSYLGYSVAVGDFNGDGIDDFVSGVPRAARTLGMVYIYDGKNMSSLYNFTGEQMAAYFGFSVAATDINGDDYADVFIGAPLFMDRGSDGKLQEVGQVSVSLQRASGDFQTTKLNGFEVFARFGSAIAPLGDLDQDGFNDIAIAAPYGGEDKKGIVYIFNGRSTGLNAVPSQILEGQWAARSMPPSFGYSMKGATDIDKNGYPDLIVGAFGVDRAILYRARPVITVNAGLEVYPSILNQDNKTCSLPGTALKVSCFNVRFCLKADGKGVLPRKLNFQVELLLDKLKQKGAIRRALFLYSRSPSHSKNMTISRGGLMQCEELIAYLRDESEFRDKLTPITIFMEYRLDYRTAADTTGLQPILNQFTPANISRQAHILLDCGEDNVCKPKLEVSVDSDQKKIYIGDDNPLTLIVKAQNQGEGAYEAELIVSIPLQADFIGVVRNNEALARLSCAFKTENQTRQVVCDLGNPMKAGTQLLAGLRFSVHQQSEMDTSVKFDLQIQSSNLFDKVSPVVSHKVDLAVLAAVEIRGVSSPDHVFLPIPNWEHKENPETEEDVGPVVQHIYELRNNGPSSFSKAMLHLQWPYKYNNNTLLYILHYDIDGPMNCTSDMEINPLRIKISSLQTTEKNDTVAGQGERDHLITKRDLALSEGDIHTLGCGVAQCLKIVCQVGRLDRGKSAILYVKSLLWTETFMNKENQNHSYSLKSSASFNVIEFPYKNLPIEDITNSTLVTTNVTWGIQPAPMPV
T4 sequence (P05106 27-718, chain 2 of 2): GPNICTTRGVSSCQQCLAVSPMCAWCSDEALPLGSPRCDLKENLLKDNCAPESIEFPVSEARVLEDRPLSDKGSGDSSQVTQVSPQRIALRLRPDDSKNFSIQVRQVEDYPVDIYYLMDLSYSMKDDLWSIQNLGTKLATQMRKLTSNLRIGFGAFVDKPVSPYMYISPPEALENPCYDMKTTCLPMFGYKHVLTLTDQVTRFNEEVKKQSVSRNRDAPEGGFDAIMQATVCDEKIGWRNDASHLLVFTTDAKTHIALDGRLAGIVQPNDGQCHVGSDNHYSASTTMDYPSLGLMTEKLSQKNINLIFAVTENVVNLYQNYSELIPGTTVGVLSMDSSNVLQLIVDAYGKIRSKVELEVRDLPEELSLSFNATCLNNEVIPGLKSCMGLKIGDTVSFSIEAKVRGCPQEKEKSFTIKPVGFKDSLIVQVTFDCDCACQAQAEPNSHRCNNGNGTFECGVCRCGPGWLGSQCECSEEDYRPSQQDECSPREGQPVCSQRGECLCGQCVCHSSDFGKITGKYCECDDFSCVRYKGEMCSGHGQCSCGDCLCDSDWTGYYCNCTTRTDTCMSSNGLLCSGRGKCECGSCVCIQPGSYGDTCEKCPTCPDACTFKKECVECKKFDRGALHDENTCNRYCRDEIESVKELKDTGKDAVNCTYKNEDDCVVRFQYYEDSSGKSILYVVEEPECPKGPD
T2 sequence (P06756 31-992 limits assumed): as the sequence (P06756 31-992, chain 1 of 2) above
T2 sequence (P05106 27-718 limits assumed): as the sequence (P05106 27-718, chain 2 of 2) above
Sequence of integrin αvβ3 on CHO cells expressing recombinant αvβ3 (β3-CHO) and on proteoglycan-deficient pgs745 cells (β3-745) (human) (P05106 27-788): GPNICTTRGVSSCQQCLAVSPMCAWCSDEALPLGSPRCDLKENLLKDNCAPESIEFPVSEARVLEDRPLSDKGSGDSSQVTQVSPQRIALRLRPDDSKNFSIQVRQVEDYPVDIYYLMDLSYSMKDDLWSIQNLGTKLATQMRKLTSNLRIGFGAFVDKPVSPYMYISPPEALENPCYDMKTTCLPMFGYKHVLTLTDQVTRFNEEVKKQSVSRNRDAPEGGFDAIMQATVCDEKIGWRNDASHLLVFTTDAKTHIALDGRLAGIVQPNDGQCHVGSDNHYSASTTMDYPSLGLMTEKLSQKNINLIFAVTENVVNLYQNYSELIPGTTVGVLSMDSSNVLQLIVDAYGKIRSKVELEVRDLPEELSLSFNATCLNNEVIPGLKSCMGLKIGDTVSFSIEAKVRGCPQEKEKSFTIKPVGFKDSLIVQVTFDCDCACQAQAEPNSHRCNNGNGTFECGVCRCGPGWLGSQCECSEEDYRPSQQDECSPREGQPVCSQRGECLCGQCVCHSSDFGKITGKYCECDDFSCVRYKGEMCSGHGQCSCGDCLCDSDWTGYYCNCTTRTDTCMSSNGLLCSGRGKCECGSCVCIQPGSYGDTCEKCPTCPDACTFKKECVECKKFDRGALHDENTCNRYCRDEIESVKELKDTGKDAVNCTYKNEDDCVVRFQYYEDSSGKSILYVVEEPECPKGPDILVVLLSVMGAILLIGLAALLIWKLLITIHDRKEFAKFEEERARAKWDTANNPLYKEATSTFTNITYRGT
T1 sequence (P13612 34-1032): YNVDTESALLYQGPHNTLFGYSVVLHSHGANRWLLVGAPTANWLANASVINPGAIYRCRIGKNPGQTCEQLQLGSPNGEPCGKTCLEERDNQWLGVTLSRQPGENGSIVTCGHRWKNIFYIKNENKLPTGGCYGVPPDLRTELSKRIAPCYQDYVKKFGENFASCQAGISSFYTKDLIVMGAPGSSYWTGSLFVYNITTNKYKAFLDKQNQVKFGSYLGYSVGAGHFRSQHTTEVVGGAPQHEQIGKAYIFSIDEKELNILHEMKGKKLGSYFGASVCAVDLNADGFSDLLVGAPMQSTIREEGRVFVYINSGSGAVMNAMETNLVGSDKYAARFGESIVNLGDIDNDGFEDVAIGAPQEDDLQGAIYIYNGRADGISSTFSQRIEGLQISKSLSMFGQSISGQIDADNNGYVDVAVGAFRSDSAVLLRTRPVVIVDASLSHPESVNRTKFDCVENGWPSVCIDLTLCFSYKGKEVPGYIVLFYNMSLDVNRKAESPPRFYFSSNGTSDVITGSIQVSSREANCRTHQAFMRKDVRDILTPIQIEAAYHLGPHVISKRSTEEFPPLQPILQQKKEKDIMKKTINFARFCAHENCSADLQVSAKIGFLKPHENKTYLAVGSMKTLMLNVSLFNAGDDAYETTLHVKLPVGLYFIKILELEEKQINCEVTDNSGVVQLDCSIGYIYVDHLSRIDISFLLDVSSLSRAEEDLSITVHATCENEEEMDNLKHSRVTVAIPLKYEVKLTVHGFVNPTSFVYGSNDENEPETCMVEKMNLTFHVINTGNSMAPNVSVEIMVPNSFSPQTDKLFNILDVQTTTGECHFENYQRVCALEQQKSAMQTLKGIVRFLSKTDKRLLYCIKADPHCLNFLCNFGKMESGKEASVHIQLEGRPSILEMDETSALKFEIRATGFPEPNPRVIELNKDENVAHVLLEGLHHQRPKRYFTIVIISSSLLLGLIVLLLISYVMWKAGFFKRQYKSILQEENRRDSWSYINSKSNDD
T1 sequence (P05556 21-798): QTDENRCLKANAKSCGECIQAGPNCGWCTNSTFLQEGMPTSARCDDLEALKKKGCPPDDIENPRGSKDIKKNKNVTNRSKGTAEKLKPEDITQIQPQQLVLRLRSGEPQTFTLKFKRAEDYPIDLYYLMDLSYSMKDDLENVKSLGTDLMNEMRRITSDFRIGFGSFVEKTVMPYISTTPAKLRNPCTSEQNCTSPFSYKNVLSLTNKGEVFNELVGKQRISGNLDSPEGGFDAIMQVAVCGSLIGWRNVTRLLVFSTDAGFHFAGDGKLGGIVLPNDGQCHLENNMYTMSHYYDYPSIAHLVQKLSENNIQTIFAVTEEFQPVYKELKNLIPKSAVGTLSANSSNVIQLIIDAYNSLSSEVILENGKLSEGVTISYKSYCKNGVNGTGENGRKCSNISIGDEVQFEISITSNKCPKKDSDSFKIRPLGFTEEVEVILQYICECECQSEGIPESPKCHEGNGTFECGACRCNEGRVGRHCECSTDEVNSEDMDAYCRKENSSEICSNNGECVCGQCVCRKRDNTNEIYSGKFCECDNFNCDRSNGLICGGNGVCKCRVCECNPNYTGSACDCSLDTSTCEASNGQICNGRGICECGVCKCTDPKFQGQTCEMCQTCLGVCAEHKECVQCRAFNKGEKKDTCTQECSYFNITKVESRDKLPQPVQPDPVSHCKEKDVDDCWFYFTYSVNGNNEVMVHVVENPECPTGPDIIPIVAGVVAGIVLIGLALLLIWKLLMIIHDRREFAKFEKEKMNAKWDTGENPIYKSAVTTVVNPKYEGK
T3 sequence (P13612 34-1032, chain 1 of 2): as the sequence (P13612 34-1032) above
T3 sequence (P05556 21-798, chain 2 of 2): as the sequence (P05556 21-798) above

Molecule: Cc1ccccc1NC(=O)Nc1ccc(CC(=O)N[C@@H](CCCCNC(=O)/C=C/c2cccnc2)C(=O)N[C@@H](CCCC(=O)O)C(=O)NC2(C(N)=O)CCCCC2)cc1 [LLP2A, reference compound]
blocking of α4β1 binding to sPLA2-IIA in transfected K562 cells (integrin α4β1): did not block

Molecule: CCc1c(C(=O)C(N)=O)c2c(OCC(=O)[O-])cccc2n1Cc1ccccc1.[Na+] [S-5920/LY315920Na]
therapeutic effect in asthma [1]: failed to demonstrate a significant therapeutic effect | therapeutic effect in rheumatoid arthritis [2]: failed to demonstrate a significant therapeutic effect

Molecule: CCc1c(C(=O)C(N)=O)c2c(OCC(=O)OC)cccc2n1Cc1ccccc1 [S-3013/LY333013]
therapeutic effect in asthma [1]: failed to demonstrate a significant therapeutic effect | therapeutic effect in rheumatoid arthritis [2]: failed to demonstrate a significant therapeutic effect

adhesion of β3-CHO cells to immobilized sPLA2-IIA in the presence of the antibody (%) [3]: 30%
Molecule: mAb 7E3 (specific to human β3 subunit, function blocking) (antibody)

binding to soluble αvβ3 (soluble integrin αvβ3): bound
Molecule: disintegrin domain of ADAM15: a known αvβ3 ligand, positive control [reference compound]

binding result [4]: binds | Kd [5]: 211 nM
B1: wt sPLA2-IIA (secretory phospholipase A2 group IIA) (enzyme)
chain: NLVNFHRMIKLTTGKEAALSYGFYGCHCGVGGRGSPKDATDRCCVTHDCCYKRLEKRGCGTKFLSYKFSNSGSRITCAKQDSCRSQLCECDKAAATCFARNKTTYNKKYQYYSNKHCRGSTPRC
modifications: FITC label in the flow cytometry assay only (sites not given) ; FITC label (sites not given) in the flow cytometry assay only; the other assays used unlabelled protein.
notes: the form is read from the printed primers; also called FITC-sPLA2-IIA; FITC-labeled sPLA2-IIA; not shown: N-terminal vector-encoded residues with the His tag from the PET28a/amp vector (insert in the Bam HI site)

binding to soluble αvβ3 (soluble integrin αvβ3): reduced the binding
B2: R74E: sPLA2-IIA mutant, Arg-74 mutated to Glu (protein)
chain: B1 chain with R74E
modifications: left off: small tags and cut ends
notes: sPLA2-IIA mutant, Arg-74 mutated to Glu

binding to soluble αvβ3 (soluble integrin αvβ3): little or no effect
B3: R53E: sPLA2-IIA mutant, Arg-53 mutated to Glu (protein)
chain: B1 chain with R53E
modifications: left off: small tags and cut ends
notes: sPLA2-IIA mutant, Arg-53 mutated to Glu

binding to soluble αvβ3 (soluble integrin αvβ3): little or no effect
B4: R42E: sPLA2-IIA mutant, Arg-42 mutated to Glu (protein)
chain: B1 chain with R42E
modifications: left off: small tags and cut ends
notes: sPLA2-IIA mutant, Arg-42 mutated to Glu

binding to soluble αvβ3 (soluble integrin αvβ3): reduced the binding
B5: R100E: sPLA2-IIA mutant, Arg-100 mutated to Glu (protein)
chain: B1 chain with R100E
modifications: left off: small tags and cut ends
notes: sPLA2-IIA mutant, Arg-100 mutated to Glu

binding to soluble αvβ3 (soluble integrin αvβ3): did not affect the binding
B6: H47Q: catalytically inactive mutant of sPLA2-IIA, His-47 mutated to Gln (protein)
chain: B1 chain with H47Q
modifications: left off: small tags and cut ends
proliferation of α4-K562 cells (α4-K562 cells): induced proliferation | PLA2 activity [6]: reduced PLA2 activity | proliferation of αvβ3-K562 cells (αvβ3-K562 cells): induced proliferation | ERK1/2 activation in U937 cells (ERK1/2): induced | proliferation of monocytic U937 cells [7]: induced robust proliferation

binding to soluble αvβ3 (soluble integrin αvβ3): effectively reduced the binding
B7: R74E/R100E: integrin-binding-defective combined mutant of sPLA2-IIA, Arg-74 and Arg-100 mutated to Glu (protein)
chain: B1 chain with R74E, R100E
modifications: left off: small tags and cut ends
proliferation of α4-K562 cells (α4-K562 cells): did not induce proliferation | PLA2 activity [6]: did not affect PLA2 activity | proliferation of αvβ3-K562 cells (αvβ3-K562 cells): did not induce proliferation | ERK1/2 activation in U937 cells (ERK1/2): did not induce | proliferation of monocytic U937 cells [7]: did not

Kd [8]: 44.7 nM
B8: sPLA2-IIA H47Q mutant (catalytically inactive) (enzyme, human, UniProt P14555 21-144, looked up)
chain: B1 chain with H47Q
notes: mature; the printed positions appear to count on the mature protein, not on the precursor entry P14555; also called H47Q sPLA2-IIA; not shown: N-terminal vector-encoded residues with His tag from the PET28a/amp vector

Kd [8]: 1080 nM
B9: sPLA2-IIA R74E/R100E mutant (integrin-binding-defective) (enzyme, human, UniProt P14555 21-144, looked up)
chain: B1 chain with R74E, R100E
notes: mature; the printed positions appear to count on the mature protein; not shown: N-terminal vector-encoded residues with His tag from the PET28a/amp vector
